Data set [1] has as its target MBP-DXV VP3 (Drosophila X virus (DXV)) (UniProt Q96724). As to the kind of experiment: EMSA.
For data set [2], the system named is MBP-CYV VP3 (Culex Y virus (CYV)). The data set is described as follows: EMSA.

UniProt Q96724, sequence (Q96724 whole entry): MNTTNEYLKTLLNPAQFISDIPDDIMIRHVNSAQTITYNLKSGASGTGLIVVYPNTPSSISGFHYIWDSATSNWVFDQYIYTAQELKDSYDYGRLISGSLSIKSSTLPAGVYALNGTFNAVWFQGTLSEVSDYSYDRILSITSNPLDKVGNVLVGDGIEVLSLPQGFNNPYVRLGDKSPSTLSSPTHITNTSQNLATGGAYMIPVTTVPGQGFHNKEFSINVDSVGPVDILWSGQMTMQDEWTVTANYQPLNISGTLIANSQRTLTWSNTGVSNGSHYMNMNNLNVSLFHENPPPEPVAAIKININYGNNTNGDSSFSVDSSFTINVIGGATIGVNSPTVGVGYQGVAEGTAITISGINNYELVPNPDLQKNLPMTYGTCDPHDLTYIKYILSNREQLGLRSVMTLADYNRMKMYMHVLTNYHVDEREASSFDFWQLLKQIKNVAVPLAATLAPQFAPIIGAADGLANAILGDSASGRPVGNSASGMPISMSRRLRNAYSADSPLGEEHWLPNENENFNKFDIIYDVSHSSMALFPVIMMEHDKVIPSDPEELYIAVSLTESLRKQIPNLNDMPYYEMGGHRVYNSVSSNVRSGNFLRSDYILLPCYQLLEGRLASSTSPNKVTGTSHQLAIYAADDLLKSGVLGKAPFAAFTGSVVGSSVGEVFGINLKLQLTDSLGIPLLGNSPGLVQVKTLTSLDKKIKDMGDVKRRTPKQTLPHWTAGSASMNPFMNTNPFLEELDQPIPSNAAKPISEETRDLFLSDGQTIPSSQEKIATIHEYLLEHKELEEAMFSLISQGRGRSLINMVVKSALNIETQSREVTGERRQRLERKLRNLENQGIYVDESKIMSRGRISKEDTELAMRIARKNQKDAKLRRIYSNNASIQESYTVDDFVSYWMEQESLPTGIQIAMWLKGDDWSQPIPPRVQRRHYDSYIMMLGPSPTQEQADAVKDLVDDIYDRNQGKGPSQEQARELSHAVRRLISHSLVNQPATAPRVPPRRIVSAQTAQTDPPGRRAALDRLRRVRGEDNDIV

126-nt FLuc dsRNA: the dissociation constant Kd in data set [1] was 0.166 µM; in data set [2] it was 0.116 µM.

(Values after publication PMC4117760.)
